Four molecules from US20260001928A1 (CORTERIA PHARMACEUTICALS, priority 2022, published 2026) can be followed below.

Assay [1] has as its target T1, CRF1R (corticotropin-releasing factor receptor 1), on the CRF1R-overexpression CHO-K1 cell line clone 2 (UniProt P34998 24-415, limits assumed).
T1 sequence (looked up): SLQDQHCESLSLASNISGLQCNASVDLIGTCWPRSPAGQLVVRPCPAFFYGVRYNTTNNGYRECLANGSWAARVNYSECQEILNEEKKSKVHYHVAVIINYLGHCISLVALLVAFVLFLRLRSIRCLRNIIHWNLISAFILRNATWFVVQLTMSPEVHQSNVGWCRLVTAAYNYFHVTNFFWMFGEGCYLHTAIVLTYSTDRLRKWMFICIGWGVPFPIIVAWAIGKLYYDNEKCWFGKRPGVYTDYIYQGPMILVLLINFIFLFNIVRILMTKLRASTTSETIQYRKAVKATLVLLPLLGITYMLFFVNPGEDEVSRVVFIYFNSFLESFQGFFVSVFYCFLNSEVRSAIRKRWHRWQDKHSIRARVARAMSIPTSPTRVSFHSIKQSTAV
The assay is described as follows: cell-based or functional assay.

For assay [2], the target named is Rat CRF2 a (corticotropin-releasing factor receptor 2), on the A7R5 rat aortic smooth muscle cell line (rat, UniProt P47866 20-411). Briefly: cell-based or functional assay.
Sequence of Rat CRF2 a (corticotropin-releasing factor receptor 2), on the A7R5 rat aortic smooth muscle cell line (P47866 20-411): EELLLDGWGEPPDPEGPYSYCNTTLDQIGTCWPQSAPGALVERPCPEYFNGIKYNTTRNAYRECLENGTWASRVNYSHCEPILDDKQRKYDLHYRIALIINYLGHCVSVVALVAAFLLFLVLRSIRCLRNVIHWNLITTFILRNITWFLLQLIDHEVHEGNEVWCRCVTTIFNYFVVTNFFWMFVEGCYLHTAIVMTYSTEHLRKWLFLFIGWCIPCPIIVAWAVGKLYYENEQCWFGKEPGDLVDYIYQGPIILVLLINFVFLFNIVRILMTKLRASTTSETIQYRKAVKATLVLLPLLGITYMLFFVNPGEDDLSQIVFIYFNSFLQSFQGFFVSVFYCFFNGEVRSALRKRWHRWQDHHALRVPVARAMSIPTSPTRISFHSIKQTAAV

*1 amine or outer side, *2 acyl side, *3 side chain or, on linkers, in order; H or OH if unused. Where no end group is shown, it is not given here. Side-chain parts run from the residue outwards. [ ]: non-standard residue; d: D form. The star is where a group is joined. C20 diacid = O=C(O)CCCCCCCCCCCCCCCCCCC(=O)*; γGlu = O=C(O)[C@H](CCC(=O)[*:2])N[*:1]; NMeI = CC[C@H](C)[C@H](NC)C(=O)O; Aib = CC(C)(N)C(=O)O

B1: peptide of SEQ ID NO: 244 (peptide)
peptide: Ac-IVLSLD[dV]PIKLK([γGlu-γGlu-C20 diacid])KILLEQEKQKAQREQAETN[Aib]QILAQV-NH2
SMILES: CC[C@H](C)[C@H](NC(C)=O)C(=O)N[C@H](C(=O)N[C@@H](CC(C)C)C(=O)N[C@@H](CO)C(=O)N[C@@H](CC(C)C)C(=O)N[C@@H](CC(=O)O)C(=O)N[C@@H](C(=O)N1CCC[C@H]1C(=O)N[C@H](C(=O)N[C@@H](CCCCN)C(=O)N[C@@H](CC(C)C)C(=O)N[C@@H](CCCCNC(=O)CC[C@H](NC(=O)CC[C@H](NC(=O)CCCCCCCCCCCCCCCCCCC(=O)O)C(=O)O)C(=O)O)C(=O)N[C@@H](CCCCN)C(=O)N[C@H](C(=O)N[C@@H](CC(C)C)C(=O)N[C@@H](CC(C)C)C(=O)N[C@@H](CCC(=O)O)C(=O)N[C@@H](CCC(N)=O)C(=O)N[C@@H](CCC(=O)O)C(=O)N[C@@H](CCCCN)C(=O)N[C@@H](CCC(N)=O)C(=O)N[C@@H](CCCCN)C(=O)N[C@@H](C)C(=O)N[C@@H](CCC(N)=O)C(=O)N[C@@H](CCCNC(=N)N)C(=O)N[C@@H](CCC(=O)O)C(=O)N[C@@H](CCC(N)=O)C(=O)N[C@@H](C)C(=O)N[C@@H](CCC(=O)O)C(=O)N[C@H](C(=O)N[C@@H](CC(N)=O)C(=O)NC(C)(C)C(=O)N[C@@H](CCC(N)=O)C(=O)N[C@H](C(=O)N[C@@H](CC(C)C)C(=O)N[C@@H](C)C(=O)N[C@@H](CCC(N)=O)C(=O)N[C@H](C(N)=O)C(C)C)[C@@H](C)CC)[C@@H](C)O)[C@@H](C)CC)[C@@H](C)CC)C(C)C)C(C)C
As for B1, in assay [1], the “EC50 [nM] (cAMP, CRF1R-overexpression CHO-K1 cells)” value was more than 250 nM and the “Emax (% I) (cAMP, 100% = Sauvagine at 100 nM)” value (from here on “Emax (% I)”) was 8 % I. Further, the “EC50 [nM] 0% HSA (cAMP, A7R5 rat aortic smooth muscle cells)” value (“EC50 [nM] 0% HSA” for short) in assay [2] came to 1.77 nM.

B2: peptide of SEQ ID NO: 242 (peptide)
peptide: [NMeI]VLSLD[dV]PIKLK([γGlu-γGlu-C20 diacid])KILLEQEKQKEQREQAETN[Aib]QILAQV-NH2
modifications: N-terminus assumed
SMILES: CC[C@H](C)[C@H](NC)C(=O)N[C@H](C(=O)N[C@@H](CC(C)C)C(=O)N[C@@H](CO)C(=O)N[C@@H](CC(C)C)C(=O)N[C@@H](CC(=O)O)C(=O)N[C@@H](C(=O)N1CCC[C@H]1C(=O)N[C@H](C(=O)N[C@@H](CCCCN)C(=O)N[C@@H](CC(C)C)C(=O)N[C@@H](CCCCNC(=O)CC[C@H](NC(=O)CC[C@H](NC(=O)CCCCCCCCCCCCCCCCCCC(=O)O)C(=O)O)C(=O)O)C(=O)N[C@@H](CCCCN)C(=O)N[C@H](C(=O)N[C@@H](CC(C)C)C(=O)N[C@@H](CC(C)C)C(=O)N[C@@H](CCC(=O)O)C(=O)N[C@@H](CCC(N)=O)C(=O)N[C@@H](CCC(=O)O)C(=O)N[C@@H](CCCCN)C(=O)N[C@@H](CCC(N)=O)C(=O)N[C@@H](CCCCN)C(=O)N[C@@H](CCC(=O)O)C(=O)N[C@@H](CCC(N)=O)C(=O)N[C@@H](CCCNC(=N)N)C(=O)N[C@@H](CCC(=O)O)C(=O)N[C@@H](CCC(N)=O)C(=O)N[C@@H](C)C(=O)N[C@@H](CCC(=O)O)C(=O)N[C@H](C(=O)N[C@@H](CC(N)=O)C(=O)NC(C)(C)C(=O)N[C@@H](CCC(N)=O)C(=O)N[C@H](C(=O)N[C@@H](CC(C)C)C(=O)N[C@@H](C)C(=O)N[C@@H](CCC(N)=O)C(=O)N[C@H](C(N)=O)C(C)C)[C@@H](C)CC)[C@@H](C)O)[C@@H](C)CC)[C@@H](C)CC)C(C)C)C(C)C
As to B2, in assay [1], the “EC50 [nM] (cAMP, CRF1R-overexpression CHO-K1 cells)” value was more than 250 nM and the “Emax (% I)” value stood at 6 % I. In addition, in assay [2], the “EC50 [nM] 0% HSA” value was found to be 0.4 nM.

B3: peptide of SEQ ID NO: 243 (peptide)
peptide: Ac-IVLSLD[dV]PIKLK([γGlu-γGlu-C20 diacid])KILLEQEKQKKQREQAETN[Aib]QILAQV-NH2
SMILES: CC[C@H](C)[C@H](NC(C)=O)C(=O)N[C@H](C(=O)N[C@@H](CC(C)C)C(=O)N[C@@H](CO)C(=O)N[C@@H](CC(C)C)C(=O)N[C@@H](CC(=O)O)C(=O)N[C@@H](C(=O)N1CCC[C@H]1C(=O)N[C@H](C(=O)N[C@@H](CCCCN)C(=O)N[C@@H](CC(C)C)C(=O)N[C@@H](CCCCNC(=O)CC[C@H](NC(=O)CC[C@H](NC(=O)CCCCCCCCCCCCCCCCCCC(=O)O)C(=O)O)C(=O)O)C(=O)N[C@@H](CCCCN)C(=O)N[C@H](C(=O)N[C@@H](CC(C)C)C(=O)N[C@@H](CC(C)C)C(=O)N[C@@H](CCC(=O)O)C(=O)N[C@@H](CCC(N)=O)C(=O)N[C@@H](CCC(=O)O)C(=O)N[C@@H](CCCCN)C(=O)N[C@@H](CCC(N)=O)C(=O)N[C@@H](CCCCN)C(=O)N[C@@H](CCCCN)C(=O)N[C@@H](CCC(N)=O)C(=O)N[C@@H](CCCNC(=N)N)C(=O)N[C@@H](CCC(=O)O)C(=O)N[C@@H](CCC(N)=O)C(=O)N[C@@H](C)C(=O)N[C@@H](CCC(=O)O)C(=O)N[C@H](C(=O)N[C@@H](CC(N)=O)C(=O)NC(C)(C)C(=O)N[C@@H](CCC(N)=O)C(=O)N[C@H](C(=O)N[C@@H](CC(C)C)C(=O)N[C@@H](C)C(=O)N[C@@H](CCC(N)=O)C(=O)N[C@H](C(N)=O)C(C)C)[C@@H](C)CC)[C@@H](C)O)[C@@H](C)CC)[C@@H](C)CC)C(C)C)C(C)C
As for B3, in assay [1], the “EC50 [nM] (cAMP, CRF1R-overexpression CHO-K1 cells)” value is more than 250 nM and the “Emax (% I)” value was 8 % I. Also, the “EC50 [nM] 0% HSA” value in assay [2] is 0.09 nM.

B4: peptide of SEQ ID NO: 241 (peptide)
peptide: Ac-IVLSLD[dV]PIKLK([γGlu-γGlu-C20 diacid])KILLEQEKQKEQREQAETN[Aib]QILAQV-NH2
SMILES: CC[C@H](C)[C@H](NC(C)=O)C(=O)N[C@H](C(=O)N[C@@H](CC(C)C)C(=O)N[C@@H](CO)C(=O)N[C@@H](CC(C)C)C(=O)N[C@@H](CC(=O)O)C(=O)N[C@@H](C(=O)N1CCC[C@H]1C(=O)N[C@H](C(=O)N[C@@H](CCCCN)C(=O)N[C@@H](CC(C)C)C(=O)N[C@@H](CCCCNC(=O)CC[C@H](NC(=O)CC[C@H](NC(=O)CCCCCCCCCCCCCCCCCCC(=O)O)C(=O)O)C(=O)O)C(=O)N[C@@H](CCCCN)C(=O)N[C@H](C(=O)N[C@@H](CC(C)C)C(=O)N[C@@H](CC(C)C)C(=O)N[C@@H](CCC(=O)O)C(=O)N[C@@H](CCC(N)=O)C(=O)N[C@@H](CCC(=O)O)C(=O)N[C@@H](CCCCN)C(=O)N[C@@H](CCC(N)=O)C(=O)N[C@@H](CCCCN)C(=O)N[C@@H](CCC(=O)O)C(=O)N[C@@H](CCC(N)=O)C(=O)N[C@@H](CCCNC(=N)N)C(=O)N[C@@H](CCC(=O)O)C(=O)N[C@@H](CCC(N)=O)C(=O)N[C@@H](C)C(=O)N[C@@H](CCC(=O)O)C(=O)N[C@H](C(=O)N[C@@H](CC(N)=O)C(=O)NC(C)(C)C(=O)N[C@@H](CCC(N)=O)C(=O)N[C@H](C(=O)N[C@@H](CC(C)C)C(=O)N[C@@H](C)C(=O)N[C@@H](CCC(N)=O)C(=O)N[C@H](C(N)=O)C(C)C)[C@@H](C)CC)[C@@H](C)O)[C@@H](C)CC)[C@@H](C)CC)C(C)C)C(C)C
Turning to B4, in assay [1], the “EC50 [nM] (cAMP, CRF1R-overexpression CHO-K1 cells)” value is more than 250 nM and the “Emax (% I)” value came out at 7 % I. The “EC50 [nM] 0% HSA” value in assay [2] was 3.52 nM.
